This is an account of results in patent publication US7341836B2, “Modified cyclic nucleotide gated ion channels” (The Regents of the University of Colorado, priority 2001, dated 2008).

Entries after “also recorded” stand apart in the source; their conditions may differ.

Assay [1] concerns rat olfactory CNG channel α subunit. Nature of the assay: Excised inside-out patch recordings, cyclic nucleotide dose-response of CNG channel constructs. Type of assay: biochemical. Conditions: for Imax^cGMP/Imax^cAMP: current at saturating cGMP divided by current at saturating cAMP. The procedure: (§1) As described in greater detail herein, the effects of modifications to CNG channels were assessed using the Hill equation, I/Imax=[cNMP]^N/([cNMP]^N+K1/2^N), where I/Imax is the fraction of maximal current, cNMP represents cyclic nucleotide, K1/2 is the concentration that gives half-maximal current, and N is the Hill coefficient, an index of cooperativity. I/Imax^cGMP/Imax^cAMP is the current induced by saturating cGMP divided by the current induced by saturating cAMP. Data (mean±standard deviation of three experiments) were obtained from excised membrane patches using standard patch clamp techniques.
(§2) To assess the cyclic nucleotide sensitivity of different CNG channel constructs, excised, inside-out patch recordings were made at room temperature (20-21° C.) using an Axopatch-200A patch clamp amplifier (Axon Instruments Inc.). Pipettes were pulled from borosilicate glass and heat polished. Pipettes were lowered onto the cells and gigaohm seals were formed. Patches were excised by shearing cells from the pipette with a jet of liquid. Ionic currents were elicited by 250 ms pulses to membrane potentials of +50 and −50 mV from a holding potential of 0 mV. Current records were sampled at five times the filter setting and stored on an IBM compatible computer. Records were corrected for errors due to series resistance (pipette resistance was 4.1 ±0.1 MΩ). Both the pipette and bath solutions contained (mM): 130 NaCl, 2 HEPES, 0.02 EDTA, and 1 EGTA, pH 7.6. Cyclic nucleotide-induced currents were obtained from the difference between currents in the presence and absence of cyclic nucleotides. Dose response curves for cAMP and cGMP were obtained at +50 and −50 mV in the same patch. The effects of the modifications were assessed using the Hill equation, I/Imax=[cNMP]^N/([cNMP]^N+K1/2^N), where I/Imax is the fraction of maximal current, cNMP represents cyclic nucleotide, K1/2 is the concentration that gives half-maximal current, and N is the Hill coefficient, an index of cooperativity. K1/2 and N for cAMP were 36±5 μM, 10±2 μM, 1.0±0.3 μM, and […] for WT, E583M, C460/E583M, and Δ61-90/C460W/E583M channels, respectively (See, Rich et al., J. Gen. Physiol. [2001], supra).
(§3) The cyclic nucleotide sensitivity of the C460W/E583M CNG channel was assessed in excised, inside-out patches as known in the art (See, Rich et al. [2001], supra). K1/2 and N were 1.1±0.3 μM and 2.1±0.4 at +50 mV; and 1.0±0.3 μM and 2.0 ±0.3 at −50 mV (n=11). With these values, the cAMP concentration could be calculated from currents measured in perforated patch experiments (Rich et al. Proc. Natl. Acad. Sci. [2001], supra).

The test system of assay [2] is HEK-293 cells expressing C460W/E583M channels. Nature of the assay: Single-cell local cAMP measurement, perforated patch or whole cell currents through C460W/E583M channels. Type of assay: cell-based, human. Conditions: 1 μM PGE1.
Description: Single-cell cAMP measurements were made using either the perforated patch or whole cell patch clamp technique (Rich et al. [2000], supra). In the perforated patch configuration, the pore forming antibiotic nystatin was added to the pipette solution to gain electrical access to the cell's interior while retaining divalent cations and larger molecules like cAMP in the cell. Recordings were made using an Axopatch-200A patch clamp amplifier (Axon Instruments). Pipette resistance was limited to 5 ΩM and averaged 3.4±0.5 ΩM (measurements provided herein are expressed as mean±standard deviation). In the perforated patch configuration, a steady access resistance was obtained 5-15 minutes following seal formation. […] These quantities were monitored throughout the experiments to ensure stable electrical access was maintained. […] The time to exchange the extracellular solution was measured by applying a 140 mM KCl solution to a depolarized cell (+50 mV), and monitoring changes in current through endogenous voltage-gated K^+ channels; for each experiment, it was less than 60 ms. […] In most of these experiments, the pipette solution also contained 1 mM cAMP; at the end of the experiment the maximal cAMP-induced current could be measured by rupturing the cell membrane at the tip of the pipette with suction, allowing saturating cAMP to diffuse to the channels (See, Rich et al. [2000], supra). […]
The test system is the same in assay [3]. Description: PGE1-induced cAMP responses in cell populations (Ca2+ influx through C460W/E583M channels). Type of assay: cell-based, human. The conditions noted are these: 100 nM PGE1. An excerpt:
In this Example, experiments conducted to detect cAMP levels in cells are described. Changes in cyclic AMP concentrations in response to PGE1 stimulation were monitored in HEK-293 cells by measuring Ca^2+ influx through C460W/E583M CNG channels (See, Rich et al. [2001], supra). HEK-293 cells express a variety of extracellular receptors including prostanoid receptors (Thomas and Hoffman, Mol. Pharmacol., 49:907-914 [1996]), and the cAMP-specific PDE type IV (Rich et al. [2001], supra; and Hoffmann et al., EMBO J., 18:893-903 [1999]). Based on PCR analysis, these cells also appear to express AC types II, […], VI, and VII, (Hellevuo et al., Biochem. Biophys. Res. Commun., 192:311-318 [1993]). C460W/E583M channels were expressed heterologously using an adenovirus construct (See, Rich et al. [2001], supra). The Ca^2+ permeability of the channel was used to detect changes in local cAMP concentration; the fluorescent indicator fura-2 was used to monitor Ca^2+ entry. With this approach, incremental changes in cAMP concentration are readily detected as changes in relative Ca^2+ influx rates through C460W/E583M channels (See, Rich et al., [2001], supra).
Transient responses were observed over a large range of PGE1 concentrations, from 0.01 to 10 μM (FIG. 17, Panel A). […] The decline was unlikely to result primarily from a reduction in AC activity (e.g., receptor desensitization), because of the sustained accumulation of total cellular cAMP in the presence of IBMX (See, FIG. 16, Panel B). To verify this, 100 μM IBMX was added at various times after PGE1 application.
To test whether PGE1 did indeed increase the total PDE activity, 100 nM PGE1 were added at various times after the initial application of 100 nM PGE1 (a subsaturating concentration). There was a negligible response to the subsequent addition of PGE1, even after 50 min (FIG. 17, Panel D). Taken together, the results of the experiments shown in FIG. 17, Panels C and D argue that the cAMP transient is due to an initial increase in AC activity, followed by a more profound increase in PDE activity. […] As indicated herein, these processes are crucial for the generation of spatially and temporally distinct cAMP signals.

Assay [4] has as its target T1, rat olfactory CNG channel α subunit (Rattus norvegicus, UniProt Q00195, C460W/E583M).
T1 construct: expressed in transfected cells; host or cells: HEK-293 (adenovirus infection)
T1 sequence (Q00195 1-664 C460W/E583M): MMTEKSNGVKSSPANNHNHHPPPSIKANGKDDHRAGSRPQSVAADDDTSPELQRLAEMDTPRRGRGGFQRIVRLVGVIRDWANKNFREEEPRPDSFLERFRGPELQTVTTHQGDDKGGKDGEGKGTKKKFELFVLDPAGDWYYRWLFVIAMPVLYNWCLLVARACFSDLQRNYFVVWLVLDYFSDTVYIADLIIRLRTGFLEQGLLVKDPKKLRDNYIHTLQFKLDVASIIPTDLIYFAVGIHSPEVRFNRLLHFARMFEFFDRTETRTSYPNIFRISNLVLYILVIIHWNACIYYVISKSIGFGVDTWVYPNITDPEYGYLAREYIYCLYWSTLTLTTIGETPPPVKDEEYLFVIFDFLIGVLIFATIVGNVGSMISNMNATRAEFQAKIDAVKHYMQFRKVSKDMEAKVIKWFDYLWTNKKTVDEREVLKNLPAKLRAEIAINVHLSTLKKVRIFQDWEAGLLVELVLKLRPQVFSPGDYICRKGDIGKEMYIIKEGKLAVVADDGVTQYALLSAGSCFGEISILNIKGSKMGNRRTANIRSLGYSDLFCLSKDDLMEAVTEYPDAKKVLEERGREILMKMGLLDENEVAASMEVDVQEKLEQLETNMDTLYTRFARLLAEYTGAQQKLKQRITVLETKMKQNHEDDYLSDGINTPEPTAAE
Description: Excised inside-out patch recordings, cyclic nucleotide dose-response of CNG channel constructs. The conditions noted are these: for N: Hill coefficient, n=11, Example 9. Type of assay: biochemical. How it is done: as §1, §2, §3

In assay [5] the test system is HEK-293 cells expressing CNG channels. Nature of the assay: Forskolin-induced cAMP accumulation monitored by Ca2+ influx (fura-2) through expressed CNG channels. The conditions noted are these: 100 μM IBMX; forskolin 0-50 μM. In kind it is cell-based, human. How it is done:
Next, experiments were conducted to assess the ability of each channel construct to detect increases in local cAMP concentration. Changes in cAMP concentration were detected using fura-2 to monitor Ca^2+ influx through CNG channels, as described in the Examples. Ca^2+ influx induced by different concentrations of forskolin, an AC activator, in the presence of 100 μM IBMX, a nonselective PDE inhibitor was measured. This approach allowed comparisons to be made between the cAMP sensitivities of the different channels to changes in cAMP, regardless of variations in expression levels between experiments. In HEK-293 cells expressing the WT channel, addition of forskolin was followed by a brief delay and an increase in Ca^2+ influx (See, FIG. 7, Panel A). The delay decreased and the rate of Ca^2+ influx increased in a dose-dependent manner. Neither effect was saturated at 50 μM forskolin. In cells expressing the E583M channel, addition of forskolin was also followed by a brief delay and an increase in Ca^2+ influx (FIG. 7, Panel B). As with the WT channel, the delay and the initial rate of Ca^2+ influx were dose-dependent. […] In cells expressing the Δ61-90/C460W/E583M channel, addition of forskolin caused similar increases in Ca^2+ influx as the E583M channel, including saturation of the delay and rate of influx at 20 μM (compare FIG. 7, Panel B with FIG. 7, Panel D). The increased response of the modified channels to forskolin treatment is consistent with the apparent cAMP affinities measured in excised patches in the absence of Ca^2+-CaM (C460W/E583M>E583M˜Δ61-90/C460W/E583>WT channels). There are several factors that may have contributed to the apparent lack of a Ca^2+-CaM effect on the channels.
Briefly, HEK-293 were maintained in MEM (Life Technologies Inc.) supplemented with 26.2 mM NaHCO3, 10% (v/v) fetal bovine serum (Gemini), penicillin (50 μg/mL), and streptomycin ([…]), pH 7.0, at 37° C. in a humidified atmosphere of 95% air and 5% CO2. Cells were plated at ˜60% confluence in 100 mm culture dishes twenty-four hours prior to infection with the CNG-channel-encoding adenovirus constructs (multiplicity of infection=10 plaque forming units per cell). […] Twenty-four hours post-infection cells were detached with phosphate-buffered saline containing 0.03% EDTA, resuspended in serum-containing medium, and assayed within 12 hours.
(cAMP levels reflect the balance of adenylyl cyclase and phosphodiesterase activity.)

As for `CCCCC[C@H](O)/C=C/[C@H]1[C@H](O)CC(=O)[C@@H]1CCCCCCC(=O)O` [PGE1, prostaglandin E1], the “effect on CNG channel activity in excised membrane patches” value in assay [1] (100 μM IBMX, 1 μM PGE1) is listed as “no direct effect on channels; also recorded: no change in current was observed”. In addition, the “average amplitude of the cAMP signal” value in assay [2] (five cells) was found to be 0.7 ± 0.4 µM. The “width at half height of the cAMP response” value in assay [2] (perforated patch, −20 mV, six cells) was determined as 87 ± 53 s. Moreover, the “slopes of the initial PGE1-induced responses” value in assay [3] worked out at 0.0038 ± 0.0003 s⁻¹.

B1: C460W/E583M: modified rat olfactory cyclic nucleotide-gated ion channel containing the C460W/E583M mutation, SEQ ID NO:6 (protein, listed as Rattus norvegicus)
chain: T1 sequence (Q00195 1-664 C460W/E583M)
Turning to B1, in assay [4], the “lower K1/2 for cAMP than the E583M channel” value was around 10 fold. Besides, the N is given as 2.1±0.4 in assay [4] (+50 mV) and 2.0 ±0.3 in assay [4] (−50 mV). In addition, the “Imax^cGMP/Imax^cAMP” value in assay [1] (+50 mV) turned out to be 0.84 ± 0.10; in assay [1] (−50 mV), 0.50 ± 0.10. Also, in assay [5], the “forskolin concentration at which delay and rate of Ca2+ influx saturated” value worked out at 5 µM.
